*1 amine or outer side, *2 acyl side, *3 side chain or, on linkers, in order; H or OH if unused. Side-chain parts run from the residue outwards. The star is where a group is joined. C18 diacid = O=C(O)CCCCCCCCCCCCCCCCC(=O)*; γGlu = O=C(O)[C@H](CCC(=O)[*:2])N[*:1]; Isovaleryl = CC(C)CC(=O)*; AEEA = NCCOCCOCC(=O)O
T1: human neuropeptide Y2 receptor (human, UniProt P49146 1-381)
T1 construct: whole, on cells; also called hNPY2 receptor; hNPY2-R
T1 sequence (looked up): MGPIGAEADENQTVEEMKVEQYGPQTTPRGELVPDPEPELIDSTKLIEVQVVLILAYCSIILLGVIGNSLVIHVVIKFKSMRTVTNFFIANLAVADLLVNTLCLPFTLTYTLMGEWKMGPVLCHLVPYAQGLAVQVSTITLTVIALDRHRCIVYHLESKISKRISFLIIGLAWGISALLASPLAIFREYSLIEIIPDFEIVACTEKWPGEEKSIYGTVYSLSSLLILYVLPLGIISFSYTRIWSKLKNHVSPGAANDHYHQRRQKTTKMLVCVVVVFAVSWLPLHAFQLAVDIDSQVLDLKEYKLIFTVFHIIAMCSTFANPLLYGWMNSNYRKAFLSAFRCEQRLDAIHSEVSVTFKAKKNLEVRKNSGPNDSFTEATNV


Molecular target: T1, human neuropeptide Y2 receptor
Experiment: radioligand competition (125I-PYY(1-36)), hNPY2R membranes
Outline: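 Commercial human Y2 receptor membranes (0.5 μg protein/well) were incubated with peptide for 2 h at room temperature in 50 mM HEPES, 5 mM MgCl₂, 1 mM CaCl₂, pH 7.4, with 0.2% ovalbumin. Bound radioligand was separated on PEI-soaked GF/C filters and counted by scintillation, and IC₅₀ came from nonlinear sigmoidal regression.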

| Binder | Ki [nM] |
| --- | --- |
| Isovaleryl-APEK([AEEA-AEEA-γGlu-C18 diacid])PEEDASPEELQRYYVELRHYYNWLTRQRY-NH2 (SMILES CC(C)CC(=O)N[C@@H](C)C(=O)N1CCC[C@H]1C(=O)N[C@@H](CCC(=O)O)C(=O)N[C@@H](CCCCNC(=O)COCCOCCNC(=O)COCCOCCNC(=O)CC[C@H](NC(=O)CCCCCCCCCCCCCCCCC(=O)O)C(=O)O)C(=O)N1CCC[C@H]1C(=O)N[C@@H](CCC(=O)O)C(=O)N[C@@H](CCC(=O)O)C(=O)N[C@@H](CC(=O)O)C(=O)N[C@@H](C)C(=O)N[C@@H](CO)C(=O)N1CCC[C@H]1C(=O)N[C@@H](CCC(=O)O)C(=O)N[C@@H](CCC(=O)O)C(=O)N[C@@H](CC(C)C)C(=O)N[C@@H](CCC(N)=O)C(=O)N[C@@H](CCCNC(=N)N)C(=O)N[C@@H](Cc1ccc(O)cc1)C(=O)N[C@@H](Cc1ccc(O)cc1)C(=O)N[C@H](C(=O)N[C@@H](CCC(=O)O)C(=O)N[C@@H](CC(C)C)C(=O)N[C@@H](CCCNC(=N)N)C(=O)N[C@@H](Cc1c[nH]cn1)C(=O)N[C@@H](Cc1ccc(O)cc1)C(=O)N[C@@H](Cc1ccc(O)cc1)C(=O)N[C@@H](CC(N)=O)C(=O)N[C@@H](Cc1c[nH]c2ccccc12)C(=O)N[C@@H](CC(C)C)C(=O)N[C@H](C(=O)N[C@@H](CCCNC(=N)N)C(=O)N[C@@H](CCC(N)=O)C(=O)N[C@@H](CCCNC(=N)N)C(=O)N[C@@H](Cc1ccc(O)cc1)C(N)=O)[C@@H](C)O)C(C)C) [Compound 108] | 0.99 |
| Isovaleryl-APEK([AEEA-AEEA-γGlu-C18 diacid])PEEAASPEELQRYYVSLRHYYNWLTRQRY-NH2 (SMILES CC(C)CC(=O)N[C@@H](C)C(=O)N1CCC[C@H]1C(=O)N[C@@H](CCC(=O)O)C(=O)N[C@@H](CCCCNC(=O)COCCOCCNC(=O)COCCOCCNC(=O)CC[C@H](NC(=O)CCCCCCCCCCCCCCCCC(=O)O)C(=O)O)C(=O)N1CCC[C@H]1C(=O)N[C@@H](CCC(=O)O)C(=O)N[C@@H](CCC(=O)O)C(=O)N[C@@H](C)C(=O)N[C@@H](C)C(=O)N[C@@H](CO)C(=O)N1CCC[C@H]1C(=O)N[C@@H](CCC(=O)O)C(=O)N[C@@H](CCC(=O)O)C(=O)N[C@@H](CC(C)C)C(=O)N[C@@H](CCC(N)=O)C(=O)N[C@@H](CCCNC(=N)N)C(=O)N[C@@H](Cc1ccc(O)cc1)C(=O)N[C@@H](Cc1ccc(O)cc1)C(=O)N[C@H](C(=O)N[C@@H](CO)C(=O)N[C@@H](CC(C)C)C(=O)N[C@@H](CCCNC(=N)N)C(=O)N[C@@H](Cc1c[nH]cn1)C(=O)N[C@@H](Cc1ccc(O)cc1)C(=O)N[C@@H](Cc1ccc(O)cc1)C(=O)N[C@@H](CC(N)=O)C(=O)N[C@@H](Cc1c[nH]c2ccccc12)C(=O)N[C@@H](CC(C)C)C(=O)N[C@H](C(=O)N[C@@H](CCCNC(=N)N)C(=O)N[C@@H](CCC(N)=O)C(=O)N[C@@H](CCCNC(=N)N)C(=O)N[C@@H](Cc1ccc(O)cc1)C(N)=O)[C@@H](C)O)C(C)C) [Compound 109] | 0.94 |
| Isovaleryl-APEK([AEEA-AEEA-γGlu-C18 diacid])PEEDAEPEEIQRYYVSLRHYYNWLTRQRY-NH2 (SMILES CC[C@H](C)[C@H](NC(=O)[C@H](CCC(=O)O)NC(=O)[C@H](CCC(=O)O)NC(=O)[C@@H]1CCCN1C(=O)[C@H](CCC(=O)O)NC(=O)[C@H](C)NC(=O)[C@H](CC(=O)O)NC(=O)[C@H](CCC(=O)O)NC(=O)[C@H](CCC(=O)O)NC(=O)[C@@H]1CCCN1C(=O)[C@H](CCCCNC(=O)COCCOCCNC(=O)COCCOCCNC(=O)CC[C@H](NC(=O)CCCCCCCCCCCCCCCCC(=O)O)C(=O)O)NC(=O)[C@H](CCC(=O)O)NC(=O)[C@@H]1CCCN1C(=O)[C@H](C)NC(=O)CC(C)C)C(=O)N[C@@H](CCC(N)=O)C(=O)N[C@@H](CCCNC(=N)N)C(=O)N[C@@H](Cc1ccc(O)cc1)C(=O)N[C@@H](Cc1ccc(O)cc1)C(=O)N[C@H](C(=O)N[C@@H](CO)C(=O)N[C@@H](CC(C)C)C(=O)N[C@@H](CCCNC(=N)N)C(=O)N[C@@H](Cc1c[nH]cn1)C(=O)N[C@@H](Cc1ccc(O)cc1)C(=O)N[C@@H](Cc1ccc(O)cc1)C(=O)N[C@@H](CC(N)=O)C(=O)N[C@@H](Cc1c[nH]c2ccccc12)C(=O)N[C@@H](CC(C)C)C(=O)N[C@H](C(=O)N[C@@H](CCCNC(=N)N)C(=O)N[C@@H](CCC(N)=O)C(=O)N[C@@H](CCCNC(=N)N)C(=O)N[C@@H](Cc1ccc(O)cc1)C(N)=O)[C@@H](C)O)C(C)C) [Compound 110] | 0.77 |

Other lines, results leading:

| Ki [nM] | Binder |
| --- | --- |
| 1.94 | Isovaleryl-APEK([AEEA-AEEA-γGlu-C18 diacid])PEEEASPEALQRYYVSLRHYYNWLTRQRY-NH2 (SMILES CC(C)CC(=O)N[C@@H](C)C(=O)N1CCC[C@H]1C(=O)N[C@@H](CCC(=O)O)C(=O)N[C@@H](CCCCNC(=O)COCCOCCNC(=O)COCCOCCNC(=O)CC[C@H](NC(=O)CCCCCCCCCCCCCCCCC(=O)O)C(=O)O)C(=O)N1CCC[C@H]1C(=O)N[C@@H](CCC(=O)O)C(=O)N[C@@H](CCC(=O)O)C(=O)N[C@@H](CCC(=O)O)C(=O)N[C@@H](C)C(=O)N[C@@H](CO)C(=O)N1CCC[C@H]1C(=O)N[C@@H](CCC(=O)O)C(=O)N[C@@H](C)C(=O)N[C@@H](CC(C)C)C(=O)N[C@@H](CCC(N)=O)C(=O)N[C@@H](CCCNC(=N)N)C(=O)N[C@@H](Cc1ccc(O)cc1)C(=O)N[C@@H](Cc1ccc(O)cc1)C(=O)N[C@H](C(=O)N[C@@H](CO)C(=O)N[C@@H](CC(C)C)C(=O)N[C@@H](CCCNC(=N)N)C(=O)N[C@@H](Cc1c[nH]cn1)C(=O)N[C@@H](Cc1ccc(O)cc1)C(=O)N[C@@H](Cc1ccc(O)cc1)C(=O)N[C@@H](CC(N)=O)C(=O)N[C@@H](Cc1c[nH]c2ccccc12)C(=O)N[C@@H](CC(C)C)C(=O)N[C@H](C(=O)N[C@@H](CCCNC(=N)N)C(=O)N[C@@H](CCC(N)=O)C(=O)N[C@@H](CCCNC(=N)N)C(=O)N[C@@H](Cc1ccc(O)cc1)C(N)=O)[C@@H](C)O)C(C)C) [Compound 115] |
| 3.32 | Isovaleryl-APEK([AEEA-AEEA-γGlu-C18 diacid])PEEEASPEELQRYYVTLRHYYNWLTRQRY-NH2 (SMILES CC(C)CC(=O)N[C@@H](C)C(=O)N1CCC[C@H]1C(=O)N[C@@H](CCC(=O)O)C(=O)N[C@@H](CCCCNC(=O)COCCOCCNC(=O)COCCOCCNC(=O)CC[C@H](NC(=O)CCCCCCCCCCCCCCCCC(=O)O)C(=O)O)C(=O)N1CCC[C@H]1C(=O)N[C@@H](CCC(=O)O)C(=O)N[C@@H](CCC(=O)O)C(=O)N[C@@H](CCC(=O)O)C(=O)N[C@@H](C)C(=O)N[C@@H](CO)C(=O)N1CCC[C@H]1C(=O)N[C@@H](CCC(=O)O)C(=O)N[C@@H](CCC(=O)O)C(=O)N[C@@H](CC(C)C)C(=O)N[C@@H](CCC(N)=O)C(=O)N[C@@H](CCCNC(=N)N)C(=O)N[C@@H](Cc1ccc(O)cc1)C(=O)N[C@@H](Cc1ccc(O)cc1)C(=O)N[C@H](C(=O)N[C@H](C(=O)N[C@@H](CC(C)C)C(=O)N[C@@H](CCCNC(=N)N)C(=O)N[C@@H](Cc1c[nH]cn1)C(=O)N[C@@H](Cc1ccc(O)cc1)C(=O)N[C@@H](Cc1ccc(O)cc1)C(=O)N[C@@H](CC(N)=O)C(=O)N[C@@H](Cc1c[nH]c2ccccc12)C(=O)N[C@@H](CC(C)C)C(=O)N[C@H](C(=O)N[C@@H](CCCNC(=N)N)C(=O)N[C@@H](CCC(N)=O)C(=O)N[C@@H](CCCNC(=N)N)C(=O)N[C@@H](Cc1ccc(O)cc1)C(N)=O)[C@@H](C)O)[C@@H](C)O)C(C)C) [Compound 119] |
| 5.43 | Isovaleryl-APEK([AEEA-AEEA-γGlu-C18 diacid])PEEDAEPEELQRYYVELRHYYNWLTRQRY-NH2 (SMILES CC(C)CC(=O)N[C@@H](C)C(=O)N1CCC[C@H]1C(=O)N[C@@H](CCC(=O)O)C(=O)N[C@@H](CCCCNC(=O)COCCOCCNC(=O)COCCOCCNC(=O)CC[C@H](NC(=O)CCCCCCCCCCCCCCCCC(=O)O)C(=O)O)C(=O)N1CCC[C@H]1C(=O)N[C@@H](CCC(=O)O)C(=O)N[C@@H](CCC(=O)O)C(=O)N[C@@H](CC(=O)O)C(=O)N[C@@H](C)C(=O)N[C@@H](CCC(=O)O)C(=O)N1CCC[C@H]1C(=O)N[C@@H](CCC(=O)O)C(=O)N[C@@H](CCC(=O)O)C(=O)N[C@@H](CC(C)C)C(=O)N[C@@H](CCC(N)=O)C(=O)N[C@@H](CCCNC(=N)N)C(=O)N[C@@H](Cc1ccc(O)cc1)C(=O)N[C@@H](Cc1ccc(O)cc1)C(=O)N[C@H](C(=O)N[C@@H](CCC(=O)O)C(=O)N[C@@H](CC(C)C)C(=O)N[C@@H](CCCNC(=N)N)C(=O)N[C@@H](Cc1c[nH]cn1)C(=O)N[C@@H](Cc1ccc(O)cc1)C(=O)N[C@@H](Cc1ccc(O)cc1)C(=O)N[C@@H](CC(N)=O)C(=O)N[C@@H](Cc1c[nH]c2ccccc12)C(=O)N[C@@H](CC(C)C)C(=O)N[C@H](C(=O)N[C@@H](CCCNC(=N)N)C(=O)N[C@@H](CCC(N)=O)C(=O)N[C@@H](CCCNC(=N)N)C(=O)N[C@@H](Cc1ccc(O)cc1)C(N)=O)[C@@H](C)O)C(C)C) [Compound 111] |
